Source: patent publication US20230331829A1 (KOREA ADVANCED INSTITUTE OF SCIENCE AND TECHNOLOGY, published 2023)

Biological target: T1, PROX1 protein of mouse retinal tissue (mouse, UniProt P48437 1-737)
T1 construct: Endogenous protein
T1 sequence (looked up): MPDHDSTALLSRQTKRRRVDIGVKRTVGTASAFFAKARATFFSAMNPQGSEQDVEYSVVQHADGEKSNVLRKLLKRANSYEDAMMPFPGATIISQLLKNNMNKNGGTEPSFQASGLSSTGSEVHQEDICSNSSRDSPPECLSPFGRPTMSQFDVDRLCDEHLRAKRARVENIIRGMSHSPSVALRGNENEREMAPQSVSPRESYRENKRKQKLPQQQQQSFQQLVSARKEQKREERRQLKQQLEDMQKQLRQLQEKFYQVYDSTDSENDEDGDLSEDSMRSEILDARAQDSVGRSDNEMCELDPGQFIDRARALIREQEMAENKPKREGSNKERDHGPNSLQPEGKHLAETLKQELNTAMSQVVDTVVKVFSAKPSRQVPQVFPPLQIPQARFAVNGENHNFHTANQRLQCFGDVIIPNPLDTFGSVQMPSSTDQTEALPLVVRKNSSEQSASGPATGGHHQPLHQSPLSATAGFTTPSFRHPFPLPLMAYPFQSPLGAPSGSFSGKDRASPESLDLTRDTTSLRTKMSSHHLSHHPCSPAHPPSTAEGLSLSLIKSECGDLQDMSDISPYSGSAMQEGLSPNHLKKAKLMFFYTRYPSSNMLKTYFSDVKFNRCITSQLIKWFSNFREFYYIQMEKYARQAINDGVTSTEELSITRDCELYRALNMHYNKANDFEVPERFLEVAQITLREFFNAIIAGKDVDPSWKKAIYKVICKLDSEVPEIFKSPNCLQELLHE
Assay: immunoprecipitation with Ni-NTA beads from mouse retinal tissue lysate, Western blot
Protocol: Protein samples were prepared from mice cortex tissue not expressing PROX1 protein and mouse retinal tissue expressing PROX1 protein and PROX1 neutralizing single chain antibody (anti-PROX1-scFv-His) at 4° C. for 16 hours, followed by Ni-NTA beads for 4 hours. Thereafter, the Ni-NTA bead immune complex was washed five times with a washing buffer (50 mM imidazole and protease inhibitor) and a Western blot experiment was performed to confirm the binding ability of the single chain antibody to the PROX1 protein.
Thereafter, the Ni-NTA bead immune complex was washed 5 times with a washing buffer (50 mM imidazole and protease inhibitor) and a Western blot experiment was performed to confirm the binding ability of the PROX1 neutralizing single chain antibody to the PROX1 protein (see FIG. 1).

B1: anti-PROX1-single chain Fv-His (clone #1A11) (scFv, V domains shown)
VH: AVTLDESGGGLQTPGGGLSLVCKASGFTFSSYAMNWVRQAPGKGLEWVAAIDDDGSYTGYGSAVKGRATISRDNGQSTVRLQLNNLRAEDTAIYYCAKAAGSGYCYRGANSSYTCGTYNAGDIDAWGHGTEVIVSS
VL: LTQPSSVSANLGETVEITCSGGSGSYGWYQQKSPGSAPVTLIYDNANRPSNIPSRFSGSKSGSTGTLTITGVRAEDEAVYYCGNVDSSTYVGMFGAGTTLTVL
notes: One polypeptide (scFv from a chicken antibody phage display library) with a hexa-histidine tag; used as phage periplasmic supernatant; also called anti-PROX1-scFv-His; scFv-His
  binding result: binds
